This series can be described thus: self-splicing fitness, log relative to wild type (ln ratio); higher = more splicing; Tetrahymena group I intron in knt gene, E. coli kanamycin selection, DiMSum; sequences stand for … in CUCUCU…GGAGGGAAAAGUUAUCAGGCAUGCACCUGGUAGCUAGUCUUUAAACCAAUAGAUUGCAUCGGUUUAAAAGGCAAGACCGUCAAAUUGCGGGAAAGGGGUCAACAGCCGUUCAGUACCAAGUCUCAGGGGAAACUUUGAGAUGGCCUUGCAAAGGGUAUGGUAAUAAGCUGACGGACAUGGUCCUAACCACGCAGCCAAGUCCUAAGUCAACAGAUCUUCUGUUGAUAUGGAUGCAGUUCACAGACUAAAUGUCGGUCGGGGAAGAUGUAUUCUUCUCAUAAGAUAUAGUCGGACCUCUCCUUAAUGGGAGCUAGCGGAUGAAGUGAUGCAACACUGGAGCCGCUGGGAACUAAUUUGUAUGCGAAAGUAUAUUGAUUAGUUUUGGAGUACUCGUGGUCG
The method, boiled down: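 A randomised library covering all eight P1ex-region intron nucleotides was built with the intron in the knt kanamycin-resistance gene on pET-22b(+) and held in E. coli BL21(DE3). Cells were grown overnight at 37°C or 30°C on LB agar, with or without 25 μg/mL kanamycin, plus 100 μg/mL carbenicillin, 50 μM IPTG and 0.2% rhamnose, and pooled colonies were amplicon-sequenced on an Illumina HiSeq 2500. DiMSum fitness is the error-weighted combination of wild-type-normalised replicate fold changes, kanamycin versus none.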

The values below come from the supplement of paper PMC7877785.

± gives the uncertainty stated by the source.

Take CCAAAGCAAUAUUACGUAAU: the “self-splicing fitness (ln)” value by setting is: (30 °C) -4.12 ± 0.18; (37 °C) -2.62 ± 0.19.
Taken in the same sequence, the figures for CCAAAGCAAUAUUACGUAGA were -3.5 ± 0.17 and -2.55 ± 0.18.
For CCAAAGCAAUAUUACGUCAC, in that order: -4.61 ± 0.25 and -2.14 ± 0.19.
Consider CCAAAGCAAUAUUACGUGAC, for which the “self-splicing fitness (ln)” value by setting is: (30 °C) -4.61 ± 0.32; (37 °C) -2.12 ± 0.26.
CCAAAGCAAUAUUACGUGUG: the “self-splicing fitness (ln)” value is, setting by setting: (30 °C) -1.33 ± 0.055; (37 °C) -0.624 ± 0.066.
For CCAAAGCAAUAUUACGUUAC, in that order: -3.75 ± 0.22 and -3.75 ± 0.36.
Consider CCACAGCAAUAUUACGAAGU, for which the “self-splicing fitness (ln)” value by setting is: (30 °C) -3.69 ± 0.18; (37 °C) -3.17 ± 0.21.
For CCACAGCAAUAUUACGAAUG, in that order: -1.11 ± 0.061 and -0.833 ± 0.071.
Take CCACAGCAAUAUUACGAUAC: the “self-splicing fitness (ln)” value is, setting by setting: (30 °C) -3.48 ± 0.24; (37 °C) -2.16 ± 0.22.
Taken in the same sequence, the figures for CCACAGCAAUAUUACGAUGU were -4.02 ± 0.24 and -1.89 ± 0.15.
On to CCACAGCAAUAUUACGAUUG, for which the “self-splicing fitness (ln)” value reads like this: (30 °C) -1.3 ± 0.05; (37 °C) -0.453 ± 0.067.
Turning to CCACAGCAAUAUUACGCAUA, the “self-splicing fitness (ln)” value (30 °C) was -3.46 ± 0.18 and the “self-splicing fitness (ln)” value (37 °C) is -2.42 ± 0.19.
As to CCACAGCAAUAUUACGCCAU, the “self-splicing fitness (ln)” value by setting is: (30 °C) -3.59 ± 0.2; (37 °C) -1.36 ± 0.21.
For CCACAGCAAUAUUACGCCUG, the “self-splicing fitness (ln)” value is, setting by setting: (30 °C) -1.51 ± 0.092; (37 °C) -0.296 ± 0.1.
Regarding CCACAGCAAUAUUACGCGCC, under “30 °C”, the “self-splicing fitness (ln)” value was -3.03 ± 0.29.
Consider CCACAGCAAUAUUACGGAGU, for which the “self-splicing fitness (ln)” value is -3.32 ± 0.16 (30 °C) and -1.32 ± 0.14 (37 °C).
Consider CCACAGCAAUAUUACGGCCG, for which the “self-splicing fitness (ln)” value is, setting by setting: (30 °C) -0.955 ± 0.073; (37 °C) 0.0456 ± 0.1.
For the sequence CCACAGCAAUAUUACGGCCU, the “self-splicing fitness (ln)” value (30 °C) is -3.94 ± 0.24 and the “self-splicing fitness (ln)” value (37 °C) was -3.38 ± 0.31.
Taken in the same sequence, the figures for CCACAGCAAUAUUACGGGAG were -2.29 ± 0.14 and -2.97 ± 0.19.
On to CCACAGCAAUAUUACGGUAA, for which the “self-splicing fitness (ln)” value reads like this: (30 °C) -3 ± 0.14; (37 °C) -2.2 ± 0.18.
CCACAGCAAUAUUACGUACU: the “self-splicing fitness (ln)” value (30 °C) is -2.01 ± 0.12 and the “self-splicing fitness (ln)” value (37 °C) was -1.93 ± 0.19.
For the sequence CCACAGCAAUAUUACGUAGG, the “self-splicing fitness (ln)” value by setting is: (30 °C) -2.62 ± 0.093; (37 °C) -2.18 ± 0.14.
Consider CCACAGCAAUAUUACGUAUU, for which the “self-splicing fitness (ln)” value was -3.57 ± 0.15 (30 °C) and -2.01 ± 0.14 (37 °C).
With CCACAGCAAUAUUACGUUAG, the “self-splicing fitness (ln)” value by setting is: (30 °C) -1.56 ± 0.062; (37 °C) -0.188 ± 0.071.
As to CCACAGCAAUAUUACGUUUU, the “self-splicing fitness (ln)” value runs as follows: (30 °C) -3.73 ± 0.16; (37 °C) -3.7 ± 0.22.
As to CCAGAGCAAUAUUACGAGCU, the “self-splicing fitness (ln)” value is, setting by setting: (30 °C) -3.54 ± 0.34; (37 °C) -2.35 ± 0.45.
For CCAGAGCAAUAUUACGAGUU, in that order: -1.94 ± 0.14 and -2.9 ± 0.27.
On to CCAGAGCAAUAUUACGAUCG, for which the “self-splicing fitness (ln)” value runs as follows: (30 °C) -0.986 ± 0.11; (37 °C) -0.589 ± 0.14.
For CCAGAGCAAUAUUACGAUUG, the “self-splicing fitness (ln)” value was -1.42 ± 0.11 (30 °C) and -0.92 ± 0.14 (37 °C).
Consider CCAGAGCAAUAUUACGCGUU, for which the “self-splicing fitness (ln)” value (30 °C) was -4.06 ± 0.23 and the “self-splicing fitness (ln)” value (37 °C) was -2.65 ± 0.18.
Turning to CCAGAGCAAUAUUACGGAUC, the “self-splicing fitness (ln)” value (30 °C) was -1.77 ± 0.32.
As for CCAGAGCAAUAUUACGGCCG, the “self-splicing fitness (ln)” value was -1.72 ± 0.16 (30 °C) and -0.276 ± 0.31 (37 °C).
In the case of CCAGAGCAAUAUUACGGCCU, the “self-splicing fitness (ln)” value (30 °C) was -2.77 ± 0.13 and the “self-splicing fitness (ln)” value (37 °C) was -1.27 ± 0.17.
CCAGAGCAAUAUUACGGCGC: the “self-splicing fitness (ln)” value by setting is: (30 °C) -3.67 ± 0.25; (37 °C) -2 ± 0.26.
Taken in the same sequence, the figures for CCAGAGCAAUAUUACGGCGG were -3.72 ± 0.18 and -1.92 ± 0.24.
For CCAGAGCAAUAUUACGGGAG, in that order: -3.51 ± 0.23 and -3.55 ± 0.3.
Take CCAGAGCAAUAUUACGGUUA: the “self-splicing fitness (ln)” value is, setting by setting: (30 °C) -2.7 ± 0.18; (37 °C) -2.01 ± 0.25.
CCAGAGCAAUAUUACGGUUU: the “self-splicing fitness (ln)” value by setting is: (30 °C) -4.44 ± 0.39; (37 °C) -3.07 ± 0.32.
CCAGAGCAAUAUUACGUACC: under “37 °C”, the “self-splicing fitness (ln)” value was -2 ± 0.35.
On to CCAGAGCAAUAUUACGUAUC, for which the “self-splicing fitness (ln)” value runs as follows: (30 °C) -2.62 ± 0.17; (37 °C) -1.73 ± 0.25.
Taken in the same sequence, the figures for CCAGAGCAAUAUUACGUAUU were -3.91 ± 0.18 and -2.41 ± 0.17.
Regarding CCAGAGCAAUAUUACGUCAU, the “self-splicing fitness (ln)” value runs as follows: (30 °C) -3.64 ± 0.28; (37 °C) -2.81 ± 0.18.
Taken in the same sequence, the figures for CCAGAGCAAUAUUACGUGCU were -3.37 ± 0.24 and -3.56 ± 0.42.
Taken in the same sequence, the figures for CCAGAGCAAUAUUACGUGGU were -2.75 ± 0.12 and -2.96 ± 0.21.
Take CCAGAGCAAUAUUACGUUCA: the “self-splicing fitness (ln)” value (30 °C) is -2.45 ± 0.32 and the “self-splicing fitness (ln)” value (37 °C) was -2.32 ± 0.34.
For CCAUAGCAAUAUUACGAAAC, the “self-splicing fitness (ln)” value by setting is: (30 °C) -4.09 ± 0.35; (37 °C) -2 ± 0.29.
As for CCAUAGCAAUAUUACGACCG, the “self-splicing fitness (ln)” value is, setting by setting: (30 °C) -0.0743 ± 0.15; (37 °C) -0.0737 ± 0.22.
As to CCAUAGCAAUAUUACGACUA, the “self-splicing fitness (ln)” value (37 °C) was -1.71 ± 0.37.
Regarding CCAUAGCAAUAUUACGAGGU, the “self-splicing fitness (ln)” value was -3.37 ± 0.26 (30 °C) and -2.67 ± 0.23 (37 °C).
Regarding CCAUAGCAAUAUUACGAUAG, the “self-splicing fitness (ln)” value is -0.989 ± 0.06 (30 °C) and -0.387 ± 0.076 (37 °C).
Taken in the same sequence, the figures for CCAUAGCAAUAUUACGCCGU were -4.03 ± 0.34 and -1.91 ± 0.35.
Taken in the same sequence, the figures for CCAUAGCAAUAUUACGCGCU were -3.87 ± 0.27 and -3.05 ± 0.4.
On to CCAUAGCAAUAUUACGCUGC, for which the “self-splicing fitness (ln)” value was -3.84 ± 0.3 (30 °C) and -2.25 ± 0.27 (37 °C).
For CCAUAGCAAUAUUACGGAGC, under “37 °C”, the “self-splicing fitness (ln)” value is -2.74 ± 0.31.
With CCAUAGCAAUAUUACGGCGC, the “self-splicing fitness (ln)” value reads like this: (30 °C) -1.25 ± 0.19; (37 °C) -2.07 ± 0.3.
As for CCAUAGCAAUAUUACGGCGU, the “self-splicing fitness (ln)” value by setting is: (30 °C) -3.98 ± 0.3; (37 °C) -1.97 ± 0.23.
For CCAUAGCAAUAUUACGGGAA, in that order: -3.49 ± 0.19 and -2.84 ± 0.18.
Consider CCAUAGCAAUAUUACGGGCU, for which the “self-splicing fitness (ln)” value is -3.65 ± 0.27 (30 °C) and -2.19 ± 0.19 (37 °C).
For CCAUAGCAAUAUUACGGUAA, in that order: -3.53 ± 0.33 and -3.26 ± 0.35.
Consider CCAUAGCAAUAUUACGGUGG, for which the “self-splicing fitness (ln)” value (30 °C) was -3.66 ± 0.13 and the “self-splicing fitness (ln)” value (37 °C) is -3.4 ± 0.18.
On to CCAUAGCAAUAUUACGGUUC, for which the “self-splicing fitness (ln)” value runs as follows: (30 °C) -4.2 ± 0.46; (37 °C) -2.03 ± 0.35.
